The values below come from patent publication US20180095098A1.

The assay has as its target Human β2-adrenergic receptor, amino-terminal FLAG epitope tag, truncated after residue 365, biotinylated, bound to the agonist BI-167107 (human) (UniProt P07550). Briefly: SPR (Biacore T100, 25 °C), biotinylated BI-167107-bound receptor on SA chip, single-cycle kinetics. (In SPR one partner is held on a chip, and binding of the other changes the refractive index at the surface.)

“Nb6B9, high affinity variant of Nb80 (VHH)” gave a fold slowing of dissociation against wild-type Nb80 above 10 fold.
